Data: US20130136731

Molecular target: thrombin, P00734

B1: native tissue plasminogen activator (protein)
chain: SYQVICRDEKTQMIYQQHQSWLRPVLRSNRVEYCWCNSGRAQCHSVPVKSCSEPRCFNGGTCQQALYFSDFVCQCPEGFAGKCCEIDTRATCYEDQGISYRGTWSTAESGAECTNWNSSALAQKPYSGRRPDAIRLGLGNHNYCRNPDRDSKPWCYVFKAGKYSSEFCSTPACSEGNSDCYFGNGSAYRGTHSLTESGASCLPWNSMILIGKVYTAQNPSAQALGLGKHNYCRNPDGDAKPWCHVLKNRRLTWEYCDVPSCSTCGLRQYSQPQFRIKGGLFADIASHPWQAAIFAKHRRSPGERFLCGGILISSCWILSAAHCFQERFPPHHLTVILGRTYRVVPGEEEQKFEVEKYIVHKEFDDDTYDNDIALLQLKSDSSRCAQESSVVRTVCLPPADLQLPDWTECELSGYGKHEALSPFYSERLKEAHVRLYPSSRCTSQHLLNRTVTDNMLCAGDTRSGGPQANLHDACQGDSGGPLVCLNDGRMTLVGIISWGLGCGQKDVPGVYTKVTNYLDWIRDNMRP
Q: With B1 as the protein, how does the “clotting time assay (fibrin mesh formation)” value read?
A: The value was “fibrin mesh formation in presence or absence of native tPA up to high micro molar concentrations was essentially unaltered compared to buffer controls”.
